Results from the supplement of paper PMC9170038.

Test system: MS2 coat protein
Test: apparent KD of MS2 coat protein; designed switch direction (-1 OFF switch, 1 ON switch): 1; higher = weaker reporter binding
Procedure, shortened: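 Designed RNA switches were transcribed on Illumina chips by stalled E. coli RNA polymerase and titrated with SNAP-549-labelled MS2 coat protein from 0.7 or 1.5 nM, doubling to 3 µM. Step length ran from 0.8–1.5 h at the lowest concentration to 10–20 min at the highest. The apparent KD is the median over clusters for each design, from curve-fitted normalised cluster fluorescence.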

[1] = input ligand: microRNA oligo, concentration not stated
[2] = Eterna round: R95, input ligand: FMN 200 uM
[3] = Eterna round: R95, input ligand: microRNA oligo, concentration not stated
[4] = Eterna round: R95, input ligand: none

Sequence	apparent KD of MS2 coat protein (input ligand: FMN 200 uM)	apparent KD of MS2 coat protein [1]	apparent KD of MS2 coat protein (input ligand: none)	apparent KD of MS2 coat protein [2]	apparent KD of MS2 coat protein [3]	apparent KD of MS2 coat protein [4]
UGAAUAGUUACAGGAUAUCAUGCGAAAAUUGCGUGAGAAGGGUGGGUGUUGUGCUCAAAGUGCUACAUGAGGAUCACCCAUGUU [SameState NG1 #40] (Eterna round: R96, puzzle: Same State NG 1)	1720 nM	99.3 nM	497 nM			
UGUCCAGCCUGAGCUGGACAAAAGCAUGUACAUGAGGAUCACCCAUGUUCAUGUACAAGCUUUUUGCUCGUCUUAUG [salish99_208a_r3_052] (puzzle: Sensor for hsa-mir-208a)				517 nM	16.4 nM	655 nM
GGAGCCAAGGCAGGAUAUUCAUAUUAAUAACAUGAGGAUCACCCAUGUAAGGCCAGAAGGCCUUGGGAGAAGGGCCAUGGCUCG [Xeonanis - 13 mod2] (Eterna round: R96, puzzle: Same State NG 2)	21.4 nM	70.4 nM	106 nM			
GGAUGAUAGACAGGAUAUUGAAUGUAAAUAGGACAAGAAGGGUCAAUGAUUUAAACGACCAGUUACAUGAGGAUCACCCAUGUU [JR_SSNG1_Sub024] (Eterna round: R96, puzzle: Same State NG 1)	29.4 nM	36.7 nM	36.6 nM			
AAACAUGAGCGAGGAUAUGCGGACGAUUACGCUGUAGAAGGCGCAUGUAAAACAACAUGAGGAUCACCCAUGUCAUGUACAUGU (Eterna round: R96, puzzle: Same State NG 1)	308 nM	146 nM	265 nM			
GUUACAUGAGGAUCACCCAUGUAUGUGUGGGAGUAAGUGUCUUAGGAUAUCUGUAAUUUAAUUUAAGAGAAGGAAGAUUGUUGU [JMF's solution 31] (Eterna round: R96, puzzle: Same State NG 3)	128 nM	94.5 nM	121 nM			
GUAAAACAUGAGGAUCACCCAUGUCAUCUAAGUCGAGGAUAUGGGAAUUAAUUAAUUAAUCCAGAAGGCGAAAAUG [Mat - Same State 1 - D94] (puzzle: Same State 1)				41.1 nM	58.1 nM	110 nM
AUUAUUUAUGCAGGAUAUGAUUAACAUGAGGAUCACCCAUGUGGUGUUGUGAGUAAGGAGAGUGAUCAGAAGGGCAUUUAUUUU [JMF's solution 47] (Eterna round: R96, puzzle: Same State NG 2)	926 nM	559 nM	669 nM			
GUUACAUGAGGAUCACCCAUGUAUGUGUGGGAGUAAGUGUCUUAGGAUAUCUAGAAUUUAAUUUAAGAGAAGGAAGAUUGUUGU [JMF's solution 49] (Eterna round: R96, puzzle: Same State NG 3)	104 nM	61 nM	83 nM			
GGAGCCGGCACCGAGGAUAUUCAUAUUAAAACAUGAGGAUCACCCAUGUGGGCCAGAAGGCCUUGGGAGAAGGCGGAUCGGCUCG [Xeonanis - 1] (Eterna round: R96, puzzle: Same State 2)	18.6 nM	141 nM	314 nM			
AAAAGAAACACAGGAUAUACCGCACUUAACGCGGUAGAAGGGUGGGACAUGAGGAUCACCCAUGUGGCCUGAGCACCAGGCCGC [Orgele] (Eterna round: R96, puzzle: Same State NG 1)	47 nM	5.38 nM	21.8 nM			
GGUCUAGUUACAGGAUAUGCUAUCCUUUGGGUAGCAGAAGGGUGGUAACAUGAGGAUCACCCAUGUGGGCCAGGGCGUGAGCCC [JL SSNG1 1.00] (Eterna round: R96, puzzle: Same State NG 1)	770 nM	981 nM	1260 nM			
ACAUGAGAGAAAGGAUAUCUUGUACCUACAUGUGACAUGAGGAUCACCCAUGUGGUAAGUAUGAGAGAGAAGGUUCAGAUAUGU [Equivalence 33 - Jieux - Same State NG 2] (Eterna round: R96, puzzle: Same State NG 2)	15.9 nM	25.8 nM	29.8 nM			
UGGUACAUGGGAGGAUAUCAUGUAGAAACAUGAGGAUCACCCAUGUAGGUGGCACGAUUCGUGAAUGAGAAGGCCCAUGUACCU [JL SSNG1 3.61] (Eterna round: R96, puzzle: Same State NG 2)	312 nM	225 nM	376 nM			
UGAAUAGUGAUAGGAUAUACAUGAGGAAUCCUCGUAGAAGGAUCAUAACAUGAGGAUCACCCAUGUAGCCGUCAGAAGACGGCA [Mat - Same State NG 1 - JL mod - D57] (Eterna round: R96, puzzle: Same State NG 1)	94.6 nM	284 nM	178 nM			
GUACAUAUUAUAGGAUAUCACGUCGAUUAGACGUGAGAAGGAUAAUCCCACAUGAAUAUUAAUACAUGAGGAUCACCCAUGUAC [SSNG1/18-A2] (Eterna round: R96, puzzle: Same State NG 1)	83.3 nM	66.3 nM	51 nM			
GUCAACACAAUAGGAUAUUAGACCAUGGAGCCGUACAUGAGGAUCACCCAUGUCUUAGGUUGAUCUAAGAAGGAUUCGUGACGU [Eternabot solution 47] (Eterna round: R96, puzzle: Same State NG 2)	53.4 nM	59.1 nM	86 nM			
UUUGCAUGACGAGGAUAUCAUUUAUUUCUUGAUUGAGAAGGCGUUCUUUUUCCUACCUAACAUGAGGAUCACCCAUGUGACAGU [JR_SSNG1_Sub049] (Eterna round: R96, puzzle: Same State NG 1)	12.7 nM	12 nM	14 nM			
CCUUAGUACAAUUUAGAUCUACAUGAGGAUCACCCAUGUACUGAGGAUAUCAGCUCGUUUAGAGCUGAGAAGGCAGAAGUACUU [SSNG3/7-A3] (Eterna round: R96, puzzle: Same State NG 3)	75.1 nM	67.6 nM	140 nM			
AUUAAACAUGAGGAUCACCCAUGUCAACAAAGUCGAGGAUAUGGGCAUAUUAUCUUAUUACCAGAAGGCGAAUAAU [salish99_ss1_r3_087] (puzzle: Same State 1)					326 nM	
